Source: article PMC8488193, “Characterization of a Novel Glutamine Synthetase From Trichinella spiralis and Its Participation in Larval Acid Resistance, Molting, and Development” (Frontiers in Cell and Developmental Biology, 2021)

Experiments:
rTsGS = biological target: T1, rTsGS (Trichinella spiralis, UniProt A0ABR3KY69); assay: phosphate release, absorbance at […] nm, with inhibitor; assay type: biochemical; details: substrates Glu, ATP, NH4+
T1 construct: gene TSPI_06310
T1 sequence (A0ABR3KY69 1-365): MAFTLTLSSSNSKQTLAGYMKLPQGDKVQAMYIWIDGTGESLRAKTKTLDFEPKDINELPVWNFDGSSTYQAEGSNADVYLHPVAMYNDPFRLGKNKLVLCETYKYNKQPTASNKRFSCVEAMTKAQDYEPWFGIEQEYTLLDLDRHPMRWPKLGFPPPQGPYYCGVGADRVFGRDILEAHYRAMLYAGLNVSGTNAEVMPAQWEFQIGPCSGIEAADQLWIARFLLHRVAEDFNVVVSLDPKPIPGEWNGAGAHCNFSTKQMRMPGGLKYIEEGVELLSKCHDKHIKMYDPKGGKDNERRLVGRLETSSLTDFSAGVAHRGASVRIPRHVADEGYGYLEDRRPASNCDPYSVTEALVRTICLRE

N = assay: purified protein; details: pH 7.0, 45 °C, 100 mM Mg2+, glutamate and ATP as co-substrates, range 0.5-5 mM
N[C@@H](CCC(=O)O)C(=O)O = assay: purified protein; assay type: biochemical, Trichinella spiralis; details: pH 7.0, 45 °C, 100 mM Mg2+, ATP and NH4+ as co-substrates, range 0.5-5 mM

Row | Molecule | inhibition at 10% glufosinate (rTsGS) | Km (N) | Km (N[C@@H](CCC(=O)O)C(=O)O)
1 | CP(=O)(O)CCC(N)C(=O)O (stereo not drawn) [glufosinate] | Both EDTA and glufosinate could inhibit the rTsGS enzyme activity |  | 
2 | rTsGS (Trichinella spiralis) |  | 170 µM | 200 µM
